Results on 10 molecules are retold here after patent US20240270821A1, “GIP/GLP1/GCG TRI-RECEPTOR AGONISTS AND USES THEREOF” (priority 2023, published 2024).

Sequences and labels used below:
T1: human GIP receptor (human) (UniProt P48546)
T1 sequence (looked up): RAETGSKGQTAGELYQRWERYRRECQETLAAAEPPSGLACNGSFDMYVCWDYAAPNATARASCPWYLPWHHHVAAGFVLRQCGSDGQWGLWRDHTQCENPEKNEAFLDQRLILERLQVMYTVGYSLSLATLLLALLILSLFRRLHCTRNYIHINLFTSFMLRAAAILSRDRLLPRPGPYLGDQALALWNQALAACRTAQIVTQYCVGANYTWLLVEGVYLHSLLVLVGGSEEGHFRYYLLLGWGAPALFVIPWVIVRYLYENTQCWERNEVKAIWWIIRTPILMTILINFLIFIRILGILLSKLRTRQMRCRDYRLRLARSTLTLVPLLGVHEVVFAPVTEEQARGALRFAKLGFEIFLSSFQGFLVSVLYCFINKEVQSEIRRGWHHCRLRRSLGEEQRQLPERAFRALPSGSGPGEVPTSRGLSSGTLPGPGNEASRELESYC

B1: Example 1061 (peptide)
chain: YXQGTFTSDXSXXLDXKAQXAFIEYLIAGGPSSGAPPPSGSEE
modifications: non-natural residues, C-terminal amide, acylated Lys with fatty diacid; synthetic construct; SITE 2: note = 2-Aminoisobutyric Acid; SITE 10: note = 3-(4-Pyridyl)-L-alanine; SITE 12: note = …; SITE 13: note = alpha-methyl-leucine; SITE 16: note = L-ornithine; SITE 17: note = Lysine is chemically modified through conjugation of the epsilon-amino group of the Lys
B2: Example 1068 (peptide)
chain: B1 chain with I27L
modifications: C-terminal amide; lysine acylated with (γ-Glu)2-C18 diacid; synthetic construct; SITE 2: note = 2-Aminoisobutyric Acid; SITE 10: note = 3-(4-Pyridyl)-L-alanine; SITE 12: note = L-ornithine; SITE 13: note = alpha-methyl-leucine; SITE 16: note = L-ornithine; SITE 17: note = Lysine is chemically modified through conjugation of the epsilon-amino group of the Lys
B3: Example 1064 (peptide)
chain: B1 chain with Y25X, I27L, A28E
modifications: Aib, 4Pal, Orn, αMeL, αMeY; lysine acylated C18 diacid; amide; synthetic construct; SITE 2: note = 2-Aminoisobutyric Acid; SITE 10: note = 3-(4-Pyridyl)-L-alanine; SITE 12: note = L-ornithine; SITE 13: note = alpha-methyl-leucine; SITE 16: note = L-ornithine; SITE 17: note = Lysine is chemically modified through conjugation of the epsilon-amino group of the Lys
B4: Example 1066 (peptide)
chain: B1 chain with Y25X, I27L, A28E
modifications: non-natural residues, Glu-γGlu-C18 diacid acylation, C-terminal amide; synthetic construct; SITE 2: note = 2-Aminoisobutyric Acid; SITE 10: note = 3-(4-Pyridyl)-L-alanine; SITE 12: note = L-ornithine; SITE 13: note = alpha-methyl-leucine; SITE 16: note = L-ornithine; SITE 17: note = Lysine is chemically modified through conjugation of the epsilon-amino group of the Lys
B5: Example 1070 (peptide)
chain: B1 chain with X12Q, Y25X, A28E
modifications: Aib, 4Pal, αMeL, Orn, Me4Pal, αMeY; acylated Lys; C-terminal amide; synthetic construct; SITE 2: note = 2-Aminoisobutyric Acid; SITE 10: note = 3-(4-Pyridyl)-L-alanine; SITE 13: note = alpha-methyl-leucine; SITE 16: note = L-ornithine; SITE 17: note = Lysine is chemically modified through conjugation of the epsilon-amino group of the Lysine side chain with D-Glutami
B6: Example 1065 (peptide)
chain: B1 chain with Y25X, I27L, A28E
modifications: Aib, 4Pal, Orn, αMeL, αMeY; lipidated Lys; C-terminal amide; synthetic construct; SITE 2: note = 2-Aminoisobutyric Acid; SITE 10: note = 3-(4-Pyridyl)-L-alanine; SITE 12: note = L-ornithine; SITE 13: note = alpha-methyl-leucine; SITE 16: note = L-ornithine; SITE 17: note = Lysine is chemically modified through conjugation of the epsilon-amino group of the Lys
B7: Example 1063 (peptide)
chain: B1 chain
modifications: Lys acylated γGlu-C18 diacid; non-natural residues; C-amide; synthetic construct; SITE 2: note = 2-Aminoisobutyric Acid; SITE 10: note = 3-(4-Pyridyl)-L-alanine; SITE 12: note = L-ornithine; SITE 13: note = alpha-methyl-leucine; SITE 16: note = L-ornithine; SITE 17: note = Lysine is chemically modified through conjugation of the epsilon-amino group of the Lys
B8: Example 1067 (peptide)
chain: B1 chain with Y25X, I27L, A28E
modifications: non-natural residues; lysine acylated with C18 diacid; C-terminal amide; synthetic construct; SITE 2: note = 2-Aminoisobutyric Acid; SITE 10: note = 3-(4-Pyridyl)-L-alanine; SITE 12: note = L-ornithine; SITE 13: note = alpha-methyl-leucine; SITE 16: note = L-ornithine; SITE 17: note = Lysine is chemically modified through conjugation of the epsilon-amino group of the Lys
B9: Example 1062 (peptide)
chain: B1 chain
modifications: C-terminal amide; lysine acylated with (Glu)2-γ-Glu-C18 diacid; synthetic construct; SITE 2: note = 2-Aminoisobutyric Acid; SITE 10: note = 3-(4-Pyridyl)-L-alanine; SITE 12: note = L-ornithine; SITE 13: note = alpha-methyl-leucine; SITE 16: note = L-ornithine; SITE 17: note = Lysine is chemically modified through conjugation of the epsilon-amino group of the Lys
B10: Example 1069 (peptide)
chain: B1 chain with I27L
modifications: non-natural residues; acylated Lys; C-terminal amide; synthetic construct; SITE 2: note = 2-Aminoisobutyric Acid; SITE 10: note = 3-(4-Pyridyl)-L-alanine; SITE 12: note = L-ornithine; SITE 13: note = alpha-methyl-leucine; SITE 16: note = L-ornithine; SITE 17: note = Lysine is chemically modified through conjugation of the epsilon-amino group of the Lys

Changes are numbered by the printed parent chain.

Chain of human glucagon receptor (human) (P47871 26-477): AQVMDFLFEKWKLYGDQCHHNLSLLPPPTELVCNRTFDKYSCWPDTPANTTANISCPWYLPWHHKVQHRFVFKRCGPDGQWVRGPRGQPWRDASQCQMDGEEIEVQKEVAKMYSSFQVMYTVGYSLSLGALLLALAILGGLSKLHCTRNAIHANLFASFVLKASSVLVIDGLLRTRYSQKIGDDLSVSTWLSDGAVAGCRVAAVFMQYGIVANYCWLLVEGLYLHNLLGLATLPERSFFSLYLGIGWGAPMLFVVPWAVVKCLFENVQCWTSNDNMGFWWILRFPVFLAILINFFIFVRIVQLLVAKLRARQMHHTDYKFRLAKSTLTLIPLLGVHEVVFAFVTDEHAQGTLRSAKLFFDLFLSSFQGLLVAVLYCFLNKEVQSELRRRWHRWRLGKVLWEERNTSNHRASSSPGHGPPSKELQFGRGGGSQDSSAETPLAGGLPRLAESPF
Chain of hGLP-1R (P43220 24-463): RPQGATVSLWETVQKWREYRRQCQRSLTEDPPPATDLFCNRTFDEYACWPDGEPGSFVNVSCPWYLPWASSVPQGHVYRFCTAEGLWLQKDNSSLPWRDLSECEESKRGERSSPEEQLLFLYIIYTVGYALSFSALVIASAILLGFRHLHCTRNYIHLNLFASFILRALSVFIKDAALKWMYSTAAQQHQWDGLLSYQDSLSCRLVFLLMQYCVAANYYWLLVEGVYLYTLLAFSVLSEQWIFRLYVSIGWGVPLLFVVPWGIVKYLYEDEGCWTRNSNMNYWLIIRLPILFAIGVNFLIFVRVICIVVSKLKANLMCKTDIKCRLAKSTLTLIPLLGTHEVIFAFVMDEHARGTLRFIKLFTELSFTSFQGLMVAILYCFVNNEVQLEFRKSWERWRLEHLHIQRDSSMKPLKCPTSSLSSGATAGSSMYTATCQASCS

The first assay has as its target hGLP-1R (Homo sapiens, UniProt P43220). The assay can be described thus: cell-based or functional assay.
In turn, B1 gave a Relative cAMP EC50 of 4.56 nM.
B2: the Relative cAMP EC50 was 11.6 nM and the cAMP Rel EC50 (1% HSA) turned out to be 1330 nM.
B3: the Relative cAMP EC50 is 7.89 nM and the cAMP Rel EC50 (1% HSA) was 912 nM.
The like results for B4 were, in that order, 9.8 nM and 1850 nM.
As for B5, the Relative cAMP EC50 is 1.54 nM and the cAMP Rel EC50 (1% HSA) turned out to be 321 nM.
Turning to B6, the Relative cAMP EC50 came to 11.6 nM and the cAMP Rel EC50 (1% HSA) is 2290 nM.
For B7, in that order: 6.96 nM and 626 nM.
Consider B8, for which the Relative cAMP EC50 was determined as 17.6 nM and the cAMP Rel EC50 (1% HSA) turned out to be 2610 nM.
As to B9, the Relative cAMP EC50 is 7.75 nM.
Turning to B10, the Relative cAMP EC50 came to 8.87 nM and the cAMP Rel EC50 (1% HSA) stood at 1290 nM.

In the next assay the target is T1, human GIP receptor (human). The assay can be described thus: cell-based or functional assay.
In the case of B1, the Relative cAMP EC50 worked out at 0.656 nM and the cAMP Rel EC50 (1% HSA) was 55.6 nM.
The molecule B2 returned a Relative cAMP EC50 of 0.211 nM and a cAMP Rel EC50 (1% HSA) of 20.2 nM.
B3 returned a Relative cAMP EC50 of 0.556 nM and a cAMP Rel EC50 (1% HSA) of 62.5 nM.
B4 yielded a Relative cAMP EC50 of 0.446 nM and a cAMP Rel EC50 (1% HSA) of 69.9 nM.
The like results for B5 were, in that order, 0.167 nM and 27.3 nM.
Consider B6, for which the Relative cAMP EC50 was determined as 0.293 nM and the cAMP Rel EC50 (1% HSA) turned out to be 39.1 nM.
As to B7, the Relative cAMP EC50 came to 0.318 nM and the cAMP Rel EC50 (1% HSA) amounted to 26.6 nM.
For B8, in that order: 0.471 nM and 86.4 nM.
B9 gave a Relative cAMP EC50 of 0.726 nM and a cAMP Rel EC50 (1% HSA) of 67.5 nM.
Molecule B10 gave a Relative cAMP EC50 of 0.417 nM and a cAMP Rel EC50 (1% HSA) of 39.5 nM.

Another assay has as its target human glucagon receptor (human) (UniProt P47871). The assay can be described thus: cell-based or functional assay.
B1: the Relative cAMP EC50 was 17.3 nM and the cAMP Rel EC50 (1% HSA) turned out to be 2910 nM.
B2 displayed a Relative cAMP EC50 of 4.8 nM and a cAMP Rel EC50 (1% HSA) of 295 nM.
For B3, in that order: 13.7 nM and 1940 nM.
The like results for B4 were, in that order, 25.4 nM and 4260 nM.
The molecule B5 showed a Relative cAMP EC50 of 20.2 nM and a cAMP Rel EC50 (1% HSA) of 1940 nM.
The like results for B6 were, in that order, 19.7 nM and 3080 nM.
For B7, the Relative cAMP EC50 is 10.6 nM and the cAMP Rel EC50 (1% HSA) is 2290 nM.
The like results for B8 were, in that order, 12.6 nM and 1860 nM.
Consider B9, for which the Relative cAMP EC50 amounted to 8.77 nM and the cAMP Rel EC50 (1% HSA) was determined as 2380 nM.
B10 returned a Relative cAMP EC50 of 21.2 nM and a cAMP Rel EC50 (1% HSA) of 2160 nM.
